Results taken from patent US20230348852A1, “METHODS AND COMPOSITIONS FOR OCULAR CELL THERAPY” (NOVARTIS AG, priority 2020, published 2023).

How the values were obtained:
CD8+ T-cells = assay: LSC/T-cell reaction assay; assay type: cell-based, human; details: B2M/HLA-Class I negative LSCs co-cultured 10 days with CD8+ T-cells from 4 donors
Experimental: An LSC/T-cell assay was performed in flat bottom 96well synthemax coated plates in duplicates and incubated in 5% CO2 at 37° C. for 10 days. RPMI-1640 supplemented with HEPES (100 µM), non-essential aas (10x), sodium pyruvate (10 mM), 2-Mercapthoethanol (10x), 10% FBS and 1% Penicillin-Streptomycin (Gibco by Life Technologies) was used as medium for co-culture. Alternatively, RPMI-1640 supplemented with HEPES (10 mM), non-essential aas (1x), sodium pyruvate (1 mM), 2-Mercapthoethanol (1x), 10% FBS and 1% Penicillin-Streptomycin (Gibco by Life Technologies) was used as medium for co-culture.
One day before co-culture, LSCs (stimulator cells) were passed and cultured to a confluency of around 70% (30′000 - 50′000 cells) and cultured with LSC medium including compound. On day two, peripheral blood mononuclear cells (PBMC) were separated using EDTA blood with the Ficoll-Paque method (GE Healthcare Life Sciences, cat #17-1440-03). […]
After 10 days, CD8+ cells were transferred to a U-bottomed 96-well plate and washed 3 times using autoMAC rinsing solution (Miltenyi Biotec, Cat #130-091-222) including MACS BSA stock solution (Miltenyi Biotec, Cat #130-091-376). Cells were measured on a BD LSRFortessa X-20. FACS data were analyzed using BD FACSDiva software and FlowJo software.

human B2M = assay: CRISPR/Cas9-mediated deletion of B2M in HEK293 (lipofection, FACS); assay type: cell-based; details: lipofection of tracrRNA, gRNA and Cas9 mRNA; FACS after 72 h
Experimental: One day before transfection, 500′000 HEK293cells (ATCC, Manassas, VA) were plated in a 35 mm dish and grown in DMEM/10%FBS. The following day, cells were transfected with a mixture of tracrRNA-gRNA-Cas9 mRNA. A stock of 10 micromolar was prepared resuspending 20 nanomoles of gRNA and 20 nanomoles tracrRNA in 2000 microlitre 10 millimolar Tris buffer pH7.4 each.
The mixture was added drop wise to the culture dish in 2.5 ml DMEM/10%FBS medium. The transfection reagent alone represented the transfection negative control.
After 6 h incubation in 5% CO2 at 37° C. medium was replaced with fresh DMEM/10%FBS medium. After 72 h in a 5% CO2 incubator cells were prepared for FACS analysis. FACS analysis: HEK293 cells were treated with Accutase (ThermoFisher, Cat # A1110501) for 20 minutes in 5% CO2 at 37° C. The reaction was stopped by using cell culture medium containing 10% Serum and transferred to a falcon tube for a centrifugation step (1000 rpm, 5 minutes). After aspirating the medium cells were resuspended in 200 microlitre FACS buffer (PBS/10%FBS).
To analyze the expression of B2M and HLA-ABC, 5 microlitre APC mouse anti-human β2-microglobulin antibody (Biolegend, Cat #316312) and 20 microlitre PE mouse anti-human HLA-ABC antibody (BD Bioscience, Cat # 560168) were added to the cell suspension and incubated for 30 minutes on ice. Cells were washed 3 times after antibody labelling with FACS buffer and resuspended in 500 microlitre in FACS buffer.
Each sample was transferred to one well of a round bottom 96 well plate and analyzed on a BD LSRFortessa X-20 device. FACS data were analyzed using BD FACSDiva software.

B1: 1-CR004366: gRNA targeting human B2M; targeting domain SEQ ID NO: 108; sgRNA SEQ ID NO: 120; from Dharmacon (nucleic acid)
guide: GAGUAGCGCGAGCACAGCUAGUUUUAGAGCUAGAAAUAGCAAGUUAAAAUAAGGCUAGUCCGUUAUCAACUUGAAAAAGUGGCACCGAGUCGGUGCUUUU
modifications: listed as RNA, chemistry not given here
notes: gRNA targeting human B2M; from Dharmacon
T-cell immune response in co-culture with gene edited LSCs (CD8+ T-cells): almost completely eliminated
B2M knockout efficiency in HEK293 (human B2M): 70%
